Data published in paper PMC6212786 (Nucleic Acids Research, 2018).

B1: E. coli LigA: E. coli NAD+-dependent DNA ligase (protein, UniProt P15042 1-671, looked up)
DNA ligase: MESIEQQLTELRTTLRHHEYLYHVMDAPEIPDAEYDRLMRELRELETKHPELITPDSPTQRVGAAPLAAFSQIRHEVPMLSLDNVFDEESFLAFNKRVQDRLKNNEKVTWCCELKLDGLAVSILYENGVLVSAATRGDGTTGEDITSNVRTIRAIPLKLHGENIPARLEVRGEVFLPQAGFEKINEDARRTGGKVFANPRNAAAGSLRQLDPRITAKRPLTFFCYGVGVLEGGELPDTHLGRLLQFKKWGLPVSDRVTLCESAEEVLAFYHKVEEDRPTLGFDIDGVVIKVNSLAQQEQLGFVARAPRWAVAFKFPAQEQMTFVRDVEFQVGRTGAITPVARLEPVHVAGVLVSNATLHNADEIERLGLRIGDKVVIRRAGDVIPQVVNVVLSERPEDTREVVFPTHCPVCGSDVERVEGEAVARCTGGLICGAQRKESLKHFVSRRAMDVDGMGDKIIDQLVEKEYVHTPADLFKLTAGKLTGLERMGPKSAQNVVNALEKAKETTFARFLYALGIREVGEATAAGLAAYFGTLEALEAASIEELQKVPDVGIVVASHVHNFFAEESNRNVISELLAEGVHWPAPIVINAEEIDSPFAGKTVVLTGSLSQMSRDDAKARLVELGAKVAGSVSKKTDLVIAGEAAGSKLAKAQELGIEVIDEAEMLRLLGS
B2: T4 DNA ligase: Full-length wild-type T4 DNA ligase (residues 1–487) (protein, UniProt P00970 1-487, looked up)
chain: MILKILNEIASIGSTKQKQAILEKNKDNELLKRVYRLTYSRGLQYYIKKWPKPGIATQSFGMLTLTDMLDFIEFTLATRKLTGNAAIEELTGYITDGKKDDVEVLRRVMMRDLECGASVSIANKVWPGLIPEQPQMLASSYDEKGINKNIKFPAFAQLKADGARCFAEVRGDELDDVRLLSRAGNEYLGLDLLKEELIKMTAEARQIHPEGVLIDGELVYHEQVKKEPEGLDFLFDAYPENSKAKEFAEVAESRTASNGIANKSLKGTISEKEAQCMKFQVWDYVPLVEIYSLPAFRLKYDVRFSKLEQMTSGYDKVILIENQVVNNLDEAKVIYKKYIDQGLEGIILKNIDGLWENARSKNLYKFKEVIDVDLKIVGIYPHRKDPTKAGGFILESECGKIKVNAGSGLKDKAGVKSHELDRTRIMENQNYYIGKILECECNGWLKSDGRTDYVKLFLPIAIRLREDKTKANTFEDVFGDFHEVTGL
modifications: full-length
B3: T4LΔ(222–247)GS: internally truncated construct with a di-amino acid Gly-Ser substituted for residues 222–247 (protein)
chain: MILKILNEIASIGSTKQKQAILEKNKDNELLKRVYRLTYSRGLQYYIKKWPKPGIATQSFGMLTLTDMLDFIEFTLATRKLTGNAAIEELTGYITDGKKDDVEVLRRVMMRDLECGASVSIANKVWPGLIPEQPQMLASSYDEKGINKNIKFPAFAQLKADGARCFAEVRGDELDDVRLLSRAGNEYLGLDLLKEELIKMTAEARQIHPEGVLIDGELVYHGSAEVAESRTASNGIANKSLKGTISEKEAQCMKFQVWDYVPLVEIYSLPAFRLKYDVRFSKLEQMTSGYDKVILIENQVVNNLDEAKVIYKKYIDQGLEGIILKNIDGLWENARSKNLYKFKEVIDVDLKIVGIYPHRKDPTKAGGFILESECGKIKVNAGSGLKDKAGVKSHELDRTRIMENQNYYIGKILECECNGWLKSDGRTDYVKLFLPIAIRLREDKTKANTFEDVFGDFHEVTGL
modifications: left off: His6 (LEHHHHHH), C-terminal, kept
B4: gp44/62: T4 clamp-loader prepared by co-expressing gp44 and gp62 (protein, UniProt P04526 1-319; P04527 1-187, looked up)
Sliding-clamp-loader large …: MITVNEKEHILEQKYRPSTIDECILPAFDKETFKSITSKGKIPHIILHSPSPGTGKTTVAKALCHDVNADMMFVNGSDCKIDFVRGPLTNFASAASFDGRQKVIVIDEFDRSGLAESQRHLRSFMEAYSSNCSIIITANNIDGIIKPLQSRCRVITFGQPTDEDKIEMMKQMIRRLTEICKHEGIAIADMKVVAALVKKNFPDFRKTIGELDSYSSKGVLDAGILSLVTNDRGAIDDVLESLKNKDVKQLRALAPKYAADYSWFVGKLAEEIYSRVTPQSIIRMYEIVGENNQYHGIAANTELHLAYLFIQLACEMQWK
Sliding-clamp-loader small …: MSLFKDDIQLNEHQVAWYSKDWTAVQSAADSFKEKAENEFFEIIGAINNKTKCSIAQKDYSKFMVENALSQFPECMPAVYAMNLIGSGLSDEAHFNYLMAAVPRGKRYGKWAKLVEDSTEVLIIKLLAKRYQVNTNDAINYKSILTKNGKLPLVLKELKGLVTDDFLKEVTKNVKEQKQLKKLALEW

What was measured:
[1] = test system: nicked substrates containing a single 5′-terminal ribonucleotide adjacent to the nick; details: cited from earlier work
[2] = test system: DNA substrate; test: in vitro DNA ligation activity; type: biochemical

| Molecule | ligation activity on nicked substrate with 5′-terminal ribonucleotide [1] | also measured |
| --- | --- | --- |
| B1 | ligates this substrate as well as it does a regular DNA substrate | – |
| B2 | better ligation activity on the same substrate, although a fraction of the adenylated intermediate fail to complete the nick-sealing reaction | – |
| B3 | – | in vitro DNA ligation activity relative to wild-type ([2]; vs wild-type T4 DNA ligase, Supplementary Figures S8, S10): comparable or slightly better |
| B4 | – | DNA ligase activity of the preparation ([2]; control of gp45 and gp44/62 preparations, data not shown): no detectable DNA ligase activity |
